{"source": "IntAct's records for PubMed 38225382", "parents": {"B1": {"name": "Syntaxin-1B (Homo sapiens), P61266 (parent)", "chain": "MKDRTQELRSAKDSDDEEEVVHVDRDHFMDEFFEQVEEIRGCIEKLSEDVEQVKKQHSAILAAPNPDEKTKQELEDLTADIKKTANKVRSKLKAIEQSIEQEEGLNRSSADLRIRKTQHSTLSRKFVEVMTEYNATQSKYRDRCKDRIQRQLEITGRTTTNEELEDMLESGKLAIFTDDIKMDSQMTKQALNEIETRHNEIIKLETSIRELHDMFVDMAMLVESQGEMIDRIEYNVEHSVDYVERAVSDTKKAVKYQSKARRKKIMIIICCVVLGVVLASSIGGTLGL", "partner": "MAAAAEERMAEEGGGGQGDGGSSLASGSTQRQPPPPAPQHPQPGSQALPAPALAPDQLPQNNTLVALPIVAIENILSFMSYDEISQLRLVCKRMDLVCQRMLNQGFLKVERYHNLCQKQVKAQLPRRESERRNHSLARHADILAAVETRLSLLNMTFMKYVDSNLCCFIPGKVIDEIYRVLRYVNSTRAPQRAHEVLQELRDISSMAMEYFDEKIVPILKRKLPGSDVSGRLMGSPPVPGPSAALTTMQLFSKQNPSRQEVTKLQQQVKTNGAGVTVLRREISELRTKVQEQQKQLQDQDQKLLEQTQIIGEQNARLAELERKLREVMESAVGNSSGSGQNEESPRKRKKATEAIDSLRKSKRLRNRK"}}, "data": [{"variants_of": "B1", "conditions": "with fbx28_human FBXO28, Q9NVF7", "values": [{"variant": "V216E", "effect of a mutation on the interaction": "decreasing interaction strength"}, {"variant": "S239P", "effect of a mutation on the interaction": "decreasing interaction strength"}, {"variant": "N134E", "effect of a mutation on the interaction": "with no effect"}, {"variant": "G226R", "effect of a mutation on the interaction": "decreasing interaction strength"}]}]}
